Tests used:
[1] = target: P74-26 TTP L229A variant (bacteriophage P74-26); test: light scattering of tube assembly
[2] = target: P74-26 tail tube protein (TTP), gp93, in the tail tube of purified virions (bacteriophage P74-26); test: cryo-EM structure
[3] = target: P74-26 tail tube protein (TTP), gp93, recombinant wild type (bacteriophage P74-26); test: SEC-MALS
[4] = target: P74-26 tail tube protein (TTP), gp93, recombinant wild type (bacteriophage P74-26); test: light scattering of tube assembly

P74-26 TTP L229A variant (natural protein)
tube formation rate relative to WT [1]: 10 % of the WT

P74-26 tail tube protein (TTP), gp93, in the tail tube of purified virions (natural protein)
stoichiometry N [2]: 3

P74-26 tail tube protein (TTP), gp93, recombinant wild type (natural protein)
mass fraction of the hexamer peak [3]: 6%
stoichiometry N [3]: 6
tube growth rate at 37 °C relative to 20 °C (x the 20°C rate) [4]: 68
tube growth rate at 50 °C relative to 20 °C (x the 20°C rate) [4]: 3520

— doi:10.1101/2022.10.03.510161
